Measured values as given in publication PMC3718980 (The Journal of Cell Biology, 2013).
Where a chain is given by its changes, count along the chain named.

T1: GST-CERMAD of wild-type Moesin (residues 483–578) (Drosophila melanogaster, UniProt P46150 483-578)
T1 sequence (looked up): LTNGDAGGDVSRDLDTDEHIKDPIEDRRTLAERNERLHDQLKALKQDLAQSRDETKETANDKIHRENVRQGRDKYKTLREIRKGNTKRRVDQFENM

B1: FERM domain of Drosophila Moesin, wild type (domain or fragment, Drosophila melanogaster, UniProt P46150 1-296, looked up)
chain: MSPKALNVRVTTMDAELEFAIQSTTTGKQLFDQVVKTIGLREVWFFGLQYTDSKGDSTWIKLYKKVMNQDVKKENPLQFRFRAKFYPEDVAEELIQDITLRLFYLQVKNAILTDEIYCPPETSVLLASYAVQARHGDHNKTTHTAGFLANDRLLPQRVIDQHKMSKDEWEQSIMTWWQEHRSMLREDAMMEYLKIAQDLEMYGVNYFEIRNKKGTDLWLGVDALGLNIYEQDDRLTPKIGFPWSEIRNISFSEKKFIIKPIDKKAPDFMFFAPRVRINKRILALCMGNHELYMRRR
B2: FERM-K212,213M of Drosophila Moesin (domain or fragment, Drosophila melanogaster, UniProt P46150 1-296, looked up)
chain: B1 chain with K212M, K213M

What was measured:
[1] = molecular target: microtubules (polymerized with GMPCPP, in taxol); assay: co-sedimentation
[2] = molecular target: T1, GST-CERMAD of wild-type Moesin …; assay: pull-down
[3] = molecular target: microtubules (polymerized with GMPCPP, in taxol); assay: co-sedimentation; remark: listed apart in the source

Row | Molecule | Kd [1] [µM] | stoichiometry N [2] | fold reduction in the apparent Kd against FERM wild type [3] [fold]
1 | Moesin1–559 (Drosophila Moesin with the C-terminal 19 amino acids deleted) (from UniProt P46150 1-559) (domain or fragment) | 1.9 | – | –
2 | B1 | – | 1 | –
3 | B2 | – | 1 | 3.6
